Literature values in article PMC7092810.

Biological target: Cyclophilin A (Homo sapiens) (UniProt P62937)
Sequence (P62937 whole entry): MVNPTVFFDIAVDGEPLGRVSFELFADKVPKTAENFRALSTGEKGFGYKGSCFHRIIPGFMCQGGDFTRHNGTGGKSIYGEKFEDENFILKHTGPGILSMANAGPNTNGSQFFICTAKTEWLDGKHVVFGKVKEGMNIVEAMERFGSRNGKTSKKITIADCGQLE

Sequence of HIV-1 capsid protein CA (O93182 133-363): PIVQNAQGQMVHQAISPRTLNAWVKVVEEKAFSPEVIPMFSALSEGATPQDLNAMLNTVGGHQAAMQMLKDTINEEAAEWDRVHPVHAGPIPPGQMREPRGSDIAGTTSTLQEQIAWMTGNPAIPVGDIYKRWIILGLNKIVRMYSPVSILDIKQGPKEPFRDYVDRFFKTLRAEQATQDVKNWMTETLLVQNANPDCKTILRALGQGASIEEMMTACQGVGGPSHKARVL

In the case of “HIV-1 capsid protein CA (from UniProt O93182)”, the Kd is given as 16 µM.
